Measurements as given in the supplement of paper PMC9233669.
Variants at the floor of the assay were thinned out.

Legend:
[1] = tested on: biotinyl-Val-oxazolone; experiment: self-aminoacylation, catalytic enhancement (BVO) (fold over background); higher = more active; k-Seq, kA / k0A0; sequences stand for … in GGGAAUGGAUCCACAUCUACGAAUUC…UUCACUGCAGACUUGACGAAGCUG
Method in brief: (§1)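 Each biotinyl-aminoacyl-oxazolone, at 2–1250 μM, was incubated with mutagenized RNA pools (0.43 μM) carrying a 21-nt variable region. The 50 μL reactions contained HEPES/NaCl/KCl/MgCl2/CaCl2 buffer with 5% acetonitrile at pH 6.9–7.0 and ran for 90 minutes at room temperature. After streptavidin capture, RNA was measured by qPCR in triplicate and by Illumina sequencing, and catalytic enhancement was calculated as median kA over the uncatalyzed rate from a pseudo-first-order fit of per-sequence fraction reacted.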

[2] = tested on: biotinyl-Trp-oxazolone; experiment: self-aminoacylation, catalytic enhancement (BWO) (fold over background); higher = more active; k-Seq, kA / k0A0; sequences stand for … in GGGAAUGGAUCCACAUCUACGAAUUC…UUCACUGCAGACUUGACGAAGCUG
Method in brief: as §1

[3] = tested on: biotinyl-Phe-oxazolone; experiment: self-aminoacylation, catalytic enhancement (BFO) (fold over background); higher = more active; k-Seq, kA / k0A0; sequences stand for … in GGGAAUGGAUCCACAUCUACGAAUUC…UUCACUGCAGACUUGACGAAGCUG
Method in brief: as §1

[4] = tested on: biotinyl-Met-oxazolone; experiment: self-aminoacylation, catalytic enhancement (BMO) (fold over background); higher = more active; k-Seq, kA / k0A0; sequences stand for … in GGGAAUGGAUCCACAUCUACGAAUUC…UUCACUGCAGACUUGACGAAGCUG
Method in brief: as §1

[5] = tested on: biotinyl-Leu-oxazolone; experiment: self-aminoacylation, catalytic enhancement (BLO) (fold over background); higher = more active; k-Seq, kA / k0A0; sequences stand for … in GGGAAUGGAUCCACAUCUACGAAUUC…UUCACUGCAGACUUGACGAAGCUG
Method in brief: as §1

[6] = tested on: biotinyl-Ile-oxazolone; experiment: self-aminoacylation, catalytic enhancement (BIO) (fold over background); higher = more active; k-Seq, kA / k0A0; sequences stand for … in GGGAAUGGAUCCACAUCUACGAAUUC…UUCACUGCAGACUUGACGAAGCUG
Method in brief: as §1

## AUUCUCCUAGGUCAUCGGAUG [Fam2.2 aminoacylation ribozyme variant]
[1]
  self-aminoacylation: 1.1
[2]
  self-aminoacylation: 0.795
[3]
  self-aminoacylation: 0.611
[4]
  self-aminoacylation: 0.975
[5]
  self-aminoacylation: 0.907
[6]
  self-aminoacylation: 1.03

## AUUCUCCUAGGUCCUCGGGUG [Fam2.2 aminoacylation ribozyme variant]
[1]
  self-aminoacylation: 4.54
[2]
  self-aminoacylation: 7.62
[3]
  self-aminoacylation: 54.1
[4]
  self-aminoacylation: 6.44
[5]
  self-aminoacylation: 10.5
[6]
  self-aminoacylation: 4.72

## AUUCUCCUAGGUCGUCGGGUG [Fam2.2 aminoacylation ribozyme variant]
[1]
  self-aminoacylation: 2.38
[2]
  self-aminoacylation: 2.28
[3]
  self-aminoacylation: 12.2
[4]
  self-aminoacylation: 2.72
[5]
  self-aminoacylation: 2.85
[6]
  self-aminoacylation: 2.55

## AUUGACAUAGGUCAUCGGGUG [Fam2.2 aminoacylation ribozyme variant]
[1]
  self-aminoacylation: 4.42
[2]
  self-aminoacylation: 8.04
[3]
  self-aminoacylation: 48.4
[4]
  self-aminoacylation: 7.3
[5]
  self-aminoacylation: 8.84
[6]
  self-aminoacylation: 5.14

## AUUGACCUAGGUCAACGGGUG [Fam2.2 aminoacylation ribozyme variant]
[1]
  self-aminoacylation: 2.31
[2]
  self-aminoacylation: 2.72
[3]
  self-aminoacylation: 8.47
[4]
  self-aminoacylation: 2.6
[5]
  self-aminoacylation: 2.43
[6]
  self-aminoacylation: 2.46

## AUUGACCUAGGUCAUCGGGCG [Fam2.2 aminoacylation ribozyme variant]
[1]
  self-aminoacylation: 4.14
[2]
  self-aminoacylation: 4.79
[3]
  self-aminoacylation: 15
[4]
  self-aminoacylation: 5.01
[5]
  self-aminoacylation: 6
[6]
  self-aminoacylation: 3.78

## AUUGACCUAGGUCAUCGGUUG [Fam2.2 aminoacylation ribozyme variant]
[1]
  self-aminoacylation: 1.29
[2]
  self-aminoacylation: 1.65
[3]
  self-aminoacylation: 3.99
[4]
  self-aminoacylation: 1.08
[5]
  self-aminoacylation: 1.41
[6]
  self-aminoacylation: 1.34

## AUUGACCUAGGUCAUGGGGUG [Fam2.2 aminoacylation ribozyme variant]
[1]
  self-aminoacylation: 2.9
[2]
  self-aminoacylation: 3.74
[3]
  self-aminoacylation: 17
[4]
  self-aminoacylation: 2.92
[5]
  self-aminoacylation: 3.32
[6]
  self-aminoacylation: 3.08

## AUUGACCUAGGUCGUCGGGUG [Fam2.2 aminoacylation ribozyme variant]
[1]
  self-aminoacylation: 1.81
[2]
  self-aminoacylation: 2.2
[3]
  self-aminoacylation: 10.2
[4]
  self-aminoacylation: 1.44
[5]
  self-aminoacylation: 1.6
[6]
  self-aminoacylation: 1.78

## AUUGACCUAGGUUAUCGGGUG [Fam2.2 aminoacylation ribozyme variant]
[1]
  self-aminoacylation: 4.7
[2]
  self-aminoacylation: 6.6
[3]
  self-aminoacylation: 29.1
[4]
  self-aminoacylation: 4.96
[5]
  self-aminoacylation: 5.36
[6]
  self-aminoacylation: 4.71

## AUUGACCUCGGUCAUCGGGUG [Fam2.2 aminoacylation ribozyme variant]
[1]
  self-aminoacylation: 3.69
[2]
  self-aminoacylation: 3.78
[3]
  self-aminoacylation: 20.3
[4]
  self-aminoacylation: 4.12
[5]
  self-aminoacylation: 4.55
[6]
  self-aminoacylation: 3.05

## AUUGCCAUGGUCAUCGAGUGA [Fam2.1 aminoacylation ribozyme variant]
[1]
  self-aminoacylation: 4.81
[2]
  self-aminoacylation: 11.6
[3]
  self-aminoacylation: 53.5
[4]
  self-aminoacylation: 9.29
[5]
  self-aminoacylation: 10.1
[6]
  self-aminoacylation: 4.75

## AUUGCCCGGGUCAUCGAGUGA [Fam2.1 aminoacylation ribozyme variant]
[1]
  self-aminoacylation: 3.8
[2]
  self-aminoacylation: 6.49
[3]
  self-aminoacylation: 45.4
[4]
  self-aminoacylation: 6.39
[5]
  self-aminoacylation: 7.35
[6]
  self-aminoacylation: 3.01

## AUUGCCCUAGUCAUCGAGUGA [Fam2.1 aminoacylation ribozyme variant]
[1]
  self-aminoacylation: 3.21
[2]
  self-aminoacylation: 6.87
[3]
  self-aminoacylation: 23.6
[4]
  self-aminoacylation: 5.83
[5]
  self-aminoacylation: 4.97
[6]
  self-aminoacylation: 2.73

## AUUGCCCUCGUCAUCGAGUGA [Fam2.1 aminoacylation ribozyme variant]
[1]
  self-aminoacylation: 2.08
[2]
  self-aminoacylation: 3.9
[3]
  self-aminoacylation: 17.4
[4]
  self-aminoacylation: 3.34
[5]
  self-aminoacylation: 3.58
[6]
  self-aminoacylation: 2.21

## AUUGCCCUGGUCACCGAGUGA [Fam2.1 aminoacylation ribozyme variant]
[1]
  self-aminoacylation: 4.68
[2]
  self-aminoacylation: 9.72
[3]
  self-aminoacylation: 70
[4]
  self-aminoacylation: 9.41
[5]
  self-aminoacylation: 10.8
[6]
  self-aminoacylation: 3.77

## AUUGCCCUGGUCAUAGAGUGA [Fam2.1 aminoacylation ribozyme variant]
[1]
  self-aminoacylation: 4.65
[2]
  self-aminoacylation: 10.9
[3]
  self-aminoacylation: 57.9
[4]
  self-aminoacylation: 9.01
[5]
  self-aminoacylation: 8.58
[6]
  self-aminoacylation: 4.05

## AUUGCCCUGGUCAUCCAGUGA [Fam2.1 aminoacylation ribozyme variant]
[1]
  self-aminoacylation: 4.02
[2]
  self-aminoacylation: 7.66
[3]
  self-aminoacylation: 44.4
[4]
  self-aminoacylation: 6.42
[5]
  self-aminoacylation: 7.38
[6]
  self-aminoacylation: 3.7

## AUUGCCCUGGUCAUCGAGUGA [Fam2.1 aminoacylation ribozyme variant]
[1]
  self-aminoacylation: 23.7
[2]
  self-aminoacylation: 60
[3]
  self-aminoacylation: 367
[4]
  self-aminoacylation: 53.1
[5]
  self-aminoacylation: 51.2
[6]
  self-aminoacylation: 20.6

## AUUGCCCUGGUCAUCGAGUUA [Fam2.1 aminoacylation ribozyme variant]
[1]
  self-aminoacylation: 2.64
[2]
  self-aminoacylation: 4.44
[3]
  self-aminoacylation: 8.37
[4]
  self-aminoacylation: 4.84
[5]
  self-aminoacylation: 5.24
[6]
  self-aminoacylation: 2.31

## AUUGCCCUGGUCAUCUAGUGA [Fam2.1 aminoacylation ribozyme variant]
[1]
  self-aminoacylation: 4.24
[2]
  self-aminoacylation: 10.3
[3]
  self-aminoacylation: 70.6
[4]
  self-aminoacylation: 8.83
[5]
  self-aminoacylation: 8.79
[6]
  self-aminoacylation: 3.81

## AUUGCCCUGGUCAUUGAGUGA [Fam2.1 aminoacylation ribozyme variant]
[1]
  self-aminoacylation: 4.2
[2]
  self-aminoacylation: 9.51
[3]
  self-aminoacylation: 64.3
[4]
  self-aminoacylation: 8.44
[5]
  self-aminoacylation: 7.3
[6]
  self-aminoacylation: 3.72

## AUUGCCCUGGUUAUCGAGUGA [Fam2.1 aminoacylation ribozyme variant]
[1]
  self-aminoacylation: 4.17
[2]
  self-aminoacylation: 10.7
[3]
  self-aminoacylation: 58.7
[4]
  self-aminoacylation: 8.87
[5]
  self-aminoacylation: 9.13
[6]
  self-aminoacylation: 4.09

## AUUGCCUUGGUCAUCGAGUGA [Fam2.1 aminoacylation ribozyme variant]
[1]
  self-aminoacylation: 4.83
[2]
  self-aminoacylation: 8.73
[3]
  self-aminoacylation: 48.9
[4]
  self-aminoacylation: 8.02
[5]
  self-aminoacylation: 8.79
[6]
  self-aminoacylation: 4.46

## AUUGCUCUGGUCAUCGAGUGA [Fam2.1 aminoacylation ribozyme variant]
[1]
  self-aminoacylation: 3.3
[2]
  self-aminoacylation: 6.59
[3]
  self-aminoacylation: 6.13
[4]
  self-aminoacylation: 6.02
[5]
  self-aminoacylation: 5.71
[6]
  self-aminoacylation: 3.33

## AUUGGCCUAGGUCAUCGGGUG [Fam2.2 aminoacylation ribozyme variant]
[1]
  self-aminoacylation: 14.9
[2]
  self-aminoacylation: 27.4
[3]
  self-aminoacylation: 277
[4]
  self-aminoacylation: 36.9
[5]
  self-aminoacylation: 48
[6]
  self-aminoacylation: 18.3
